Reference: patent publication US20220227883A1 (published 2022)
Where “and” joins values, the source holds several entries; their conditions need not be identical. Identical values can stand only once.

Assays:
[1] = biological target: HLA-A*02:01 presented KRAS^wild type epitope on cells (human); experiment: cell-based or functional assay
[2] = biological target: HLA-A*02:01 presented KRAS^G12V epitope on cells (human); experiment: cell-based or functional assay
[3] = biological target: HLA-A*02:01 presented KRAS^G12D epitope on cells (human); experiment: cell-based or functional assay
[4] = biological target: T1, KRAS G12V peptide on HLA-A*02:01 (human); experiment: multimer staining
T1 peptide: KLVVVGAVGV

[5] = biological target: T2, KRAS G12D peptide on HLA-A*02:01 (human); experiment: multimer staining
T2 peptide: KLVVVGADGV

[6] = biological target: A*02:01-KRAS^G12V tetramer (human) (UniProt P61769); experiment: tetramer staining of TCR-transduced T cells, flow cytometry (FIG. 24)
[7] = biological target: T3, KRAS wild type peptide on HLA-A*02:01 (human); experiment: killing
T3 peptide: KLVVVGAGGV
Procedure: (§1) KTCR1, KRAS^G12V-specific, HLA-A*02:01-restricted TCR and KTCR2 and KTCR3, KRAS^G12D-specific, HLA-A*02:01-restricted TCRs were co cultured with K562-A*02:01 antigen presenting cells which were peptide pulsed with either the KRAS^G12D, KRAS^G12V, KRAS^WT peptide (10 μg/mL) for 5 hours at an effector to target cell ratio of 5:1.

[8] = biological target: T1, KRAS G12V peptide on HLA-A*02:01; experiment: killing
Procedure: as §1

[9] = biological target: T2, KRAS G12D peptide on HLA-A*02:01; experiment: killing
Procedure: as §1

| Binder | Mean % cytotoxicity (cell lysis) of K562 + KRAS^Wild type target cells, FVS780 flow cytometry, 5 hours, effector to target 5:1 [1] [%] | Mean % cytotoxicity (cell lysis) of K562 A*02:01 + KRAS^G12V target cells, FVS780 flow cytometry, 5 hours, effector to target 5:1 [2] [%] | Mean % cytotoxicity (cell lysis) of K562 A*02:01 + KRAS^G12D target cells, FVS780 flow cytometry, 5 hours, effector to target 5:1 [3] [%] | binding result [7] | binding result [8] | binding result [9] | other results |
| --- | --- | --- | --- | --- | --- | --- | --- |
| KTCR-1 (TCR, V domains shown) Valpha: TQLLEQSPQFLSIQEGENLTVYCNSSSVFSSLQWYRQEPGEGPVLLVTVVTGGEVKKLKRLTFQFGDARKDSSLHITAAQPGDTGLYLCAGEFESNAGNMLTFGGGTRLMVKP Vbeta: DGGITQSPKYLFRKEGQNVTLSCEQNLNHDAMYWYRQDPGQGLRLIYYSQIVNDFQKGDIAEGYSVSREKKESFPLTVTSAQKNPTAFYLCASSIWLGPKGPGELFFGEGSRLTVL | 2.9 | 16.5 | 4 | no recognition | – | – | IFNγ ELISpot, KTCR-1 CD8+ T cells co-cultured with CFPAC-1 (HLA-A*02:01^+ KRAS^G12V), Mean (SFU of IFNγ/2.0 × 10^4 cell input) [2]: 42; IFNγ ELISpot, KTCR-1 CD8+ T cells co-cultured with CFPAC-1 (HLA-A*02:01^+ KRAS^G12V), replicate (SFU of IFNγ/2.0 × 10^4 cell input) [2]: 52 and 42; IFNγ ELISpot, KTCR-1 CD8+ T cells co-cultured with PANC-1 (HLA-A*02:01^+ KRAS^G12D), Mean (SFU of IFNγ/2.0 × 10^4 cell input) [3]: 19.5; IFNγ ELISpot, KTCR-1 CD8+ T cells co-cultured with PANC-1 (HLA-A*02:01^+ KRAS^G12D), replicate (SFU of IFNγ/2.0 × 10^4 cell input) [3]: 13 and 18; binding result [4]: recognises; binding result [5]: no recognition; percent of TCR transduced T cells tetramer positive [6]: > 90% |
| KTCR-2 (TCR, V domains shown) Valpha: GESVGLHLPTLSVQEGDNSIINCAYSNSASDYFIWYKQESGKGPQFIIDIRSNMDKRQGQRVTVLLNKTVKHLSLQIAATQPGDSAVYFCAENRDTDKLIFGTGTRLQVFP Vbeta: DGGITQSPKYLFRKEGQNVTLSCEQNLNHDAMYWYRQDPGQGLRLIYYSQIVNDFQKGDIAEGYSVSREKKESFPLTVTSAQKNPTAFYLCASSIWLGPKGPGELFFGEGSRLTVL | 4.79 | 4 | 19.1 | no recognition | no recognition | recognises | IFNγ ELISpot, KTCR-2 CD8+ T cells co-cultured with CFPAC-1 (HLA-A*02:01^+ KRAS^G12V), Mean (SFU of IFNγ/2.0 × 10^4 cell input) [2]: 11.5; IFNγ ELISpot, KTCR-2 CD8+ T cells co-cultured with CFPAC-1 (HLA-A*02:01^+ KRAS^G12V), replicate (SFU of IFNγ/2.0 × 10^4 cell input) [2]: 8 and 15; IFNγ ELISpot, KTCR-2 CD8+ T cells co-cultured with PANC-1 (HLA-A*02:01^+ KRAS^G12D), Mean (SFU of IFNγ/2.0 × 10^4 cell input) [3]: 98.5; IFNγ ELISpot, KTCR-2 CD8+ T cells co-cultured with PANC-1 (HLA-A*02:01^+ KRAS^G12D), replicate (SFU of IFNγ/2.0 × 10^4 cell input) [3]: 105 and 92 |
| KTCR-3 (TCR, V domains shown) Valpha: TQLLEQSPQFLSIQEGENLTVYCNSSSVFSSLQWYRQEPGEGPVLLVTVVTGGEVKKLKRLTFQFGDARKDSSLHITAAQPGDTGLYLCAGEFESNAGNMLTFGGGTRLMVKP Vbeta: DTEVTQTPKHLVMGMTNKKSLKCEQHMGHRAMYWYKQKAKKPPELMFVYSYEKLSINESVPSRFSPECPNSSLLNLHLHALQPEDSALYLCASSLQITTDGYTFGSGTRLTVV | 2.82 | 2 | 16.3 | no recognition | no recognition | recognises | IFNγ ELISpot, KTCR-3 CD8+ T cells co-cultured with CFPAC-1 (HLA-A*02:01^+ KRAS^G12V), Mean (SFU of IFNγ/2.0 × 10^4 cell input) [2]: 21; IFNγ ELISpot, KTCR-3 CD8+ T cells co-cultured with CFPAC-1 (HLA-A*02:01^+ KRAS^G12V), replicate (SFU of IFNγ/2.0 × 10^4 cell input) [2]: 13 and 19; IFNγ ELISpot, KTCR-3 CD8+ T cells co-cultured with PANC-1 (HLA-A*02:01^+ KRAS^G12D), Mean (SFU of IFNγ/2.0 × 10^4 cell input) [3]: 63; IFNγ ELISpot, KTCR-3 CD8+ T cells co-cultured with PANC-1 (HLA-A*02:01^+ KRAS^G12D), replicate (SFU of IFNγ/2.0 × 10^4 cell input) [3]: 73 and 53 |
